# B1: GST-tagged SR6v15 (VHH)
# VHH: EVQLVESGGGLVQAGDSLRLSCAASGDSYILWRMGWFRQAPGKEREFVAAISLDGQFTNYADSVRGRFSISADSAKYTVYLQMNSLKPEDTAVYYCAALPFLDYWGQGTQVTVSS
# Target: recombinant RBD (ThermoFisher, RP-87678) (SARS-CoV-2, UniProt P0DTC2 319-541)
# Test: BLI
binder,measurement,value
B1,koff,0.00175 s⁻¹

# Source: PMC8448731 (2021)
